Assay [1] concerns the target T1, serine acetyltransferase of cysteine-prototrophic revertant (Escherichia coli, UniProt P0A9D4, M256I).
T1 construct: host or cells: cysteine-prototrophic revertant of a cysteine-auxotrophic strain mutagenized with ethyl methanesulfonate (Denk and Bock 1987)
Conditions: versus wild-type; cited from earlier work.

Assay [2] concerns the target wild-type form of serine acetyltransferase. Conditions: 0.1 mM acetyl-coenzyme A and 1 mM L-serine; competitive; read-out: inhibitor constant Ki; cited from earlier work.
Assay [3] deals with T1, serine acetyltransferase of cysteine-prototrophic revertant. Kind of assay: Literature: end product inhibition of serine acetyltransferase from a cysteine-prototrophic revertant. The class given is biochemical. How it is done: According to the literature reference mentioned, the feedback resistance of this mutant is elevated 10-fold. Consequently, the Ki of this mutant is approx. 0.01 mM, when comparison is made with the wild-type form.

Assay [4] deals with JM15attλ::cysE strains. Kind of assay: Cysteine production in 1 L fermenter, chromosomally encoded cysE alleles. The class given is cell-based, E. coli. The settings on record: single chromosomal copy. The method, then:
For the purpose of being integrated into the chromosomal attachment site (attλ), the cysE alleles cysEIV, cysEX and cysEXI were cloned into the plasmid pRS551 (Simons et al., 1987, Gene 53: 85-96). For this, each cysE allele was amplified by PCR from the corresponding cysE plasmid. The oligonucleotides which were used, i.e. cysE-fwl and cysE-revl, are described in Example 1. The amplification was carried out as described in Example 3. The resulting fragments were cleaved with EcoRI/BamHI, purified through an agarose gel and ligated into vector pRS551 which had been cleaved with EcoRI and BamHI. This afforded the vector pRS551-based recombinant plasmids pRScysEIV, X and XI.
A heterogeneous lambda lysate, which contained recombinant cysE allele-carrying λRS45 derivatives in addition to λRS45 phages, was produced in vivo by homologous recombination by means of preparing a plate lysate on a pRScysE-carrying recA^+ strain (e.g. YMC9, ATCC 3397) using the λRS45 phage (Simons et al., 1987, Gene 53: 85-96).
The cysE strain JM15, which was infected with the heterogeneous lambda lysate and subsequently plated on kanamycin-containing (25 mg/L) LB plates, was used for selecting for the recombinant RS45 derivatives. The lysogenic, kanamycin-resistant clones which were obtained were then tested for their ability to grow on minimal medium plates without cysteine. A clone which was in each case cysteine-prototrophic was selected and used for preparing a homogeneous cysE λ lysate (by means of UV induction, Simons et al., 1987, Gene 53: 85-96).
The JM15 stain was infected with these homogeneous cysE λ lysates which were obtained in each case. The resulting JM15attλ::cysE strains were cultured as described in Example 6. Instead of tetracycline, the respective media in each case contained 25 mg of kanamycin per L as the selection agent.

The target of assay [5] is serine acetyltransferase. Kind of assay: Serine acetyltransferase enzyme activity test with and without L-cysteine (inhibitor constant Ki, specific activity). The class given is biochemical, E. coli. The settings on record: for Ki: inhibitor L-cysteine. From the text:
Any method which enables the activity of the serine acetyltransferase to be determined in the presence of cysteine can be used for determining the cysteine sensitivity of this enzyme. For example, the serine acetyltransferase activity can be determined using the method described by Kredich and Tomkins, J. Biol. Chem. 241: 4955-4965 (1966). In this test, the enzyme test mixture contains the substrate, L-serine, and the cofactor, acetyl-coenzyme A. The reaction is started by adding enzyme and monitored, in a spectro photometer, by observing the decrease in absorption at 232 nm which is elicited by the cleavage of the thioester bond in the acetyl-coenzyme A.
The above-described enzyme test is suitable for determining the cysteine sensitivity of any serine acetyltransferase enzyme, including the enzymes which have a modified carboxyl terminus. Inhibition of the serine acetyltransferase activity is tested in the presence of differing concentrations of L-cysteine in the reaction mixture. The catalytic activity of the different serine acetyltransferase enzymes is determined in the presence and absence of L-cysteine, and the inhibitor constant, Ki, is ascertained from this (Kredich and Tomkins, J. Biol. Chem., 241, 4955-4965 (1966)).
In order to investigate the biochemical basis of the cysteine secretion of the revertants, the activity of the serine acetyltransferase was determined in vitro, and the ability of cysteine to inhibit the enzyme was measured. For the determination, use was made of S30 extracts (cell homogenates centrifuged at 30,000 g and 4° C. for 20 minutes) of the selected revertants, the starting strains and the comparison strain, E. coli W3110 (ATTC 27325).
The biochemical parameters such as enzyme activity and inhibitor constant, Ki, were determined in an analogous manner to that described in Example 1.
The plasmids resulting from this cloning were designated pACYC184/cysE-Del in accordance with the extent of their deletion (cf. FIG. 9 for the plasmid map). Determination of the enzymic activity and the inhibitor constant, Ki, and also the cross-feeding test, were carried out in analogy with the description in Example 1. DNA sequence analysis was used to confirm that the deletions had been correctly introduced.
Determination of the enzymic activity and of the inhibitor constant Ki, and also the cross-feeding test, were carried out in analogy with the description in Example 1.

Assay [6] relates to production strain JM15. Kind of assay: Cysteine production in 1 L fermenter, JM15 with plasmid-encoded cysE alleles. The class given is cell-based, E. coli. Conditions: 48 h, JM15 transformed with plasmid. How it is done:
Influence of different, plasmid-encoded cysE alleles on the production of L-cysteine or products derived from L-cysteine in a 1 L fermenter using the host strain JM15 20 mL of LB medium (1% tryptone, 0.5% yeast extract, 0.5% NaCl) contained in a 100 mL Erlenmeyer flask were inoculated with a single colony of the production strain JM15 (CGSC#5042) which had been transformed with the respective cysE plasmid.
After having been incubated for 7 hours in a bacterial shaker (30° C., 150 rpm), the respective preliminary cultures were transferred to 100 mL of SM1 medium. The SM1 medium contained 5 g/L glucose, 5 mg/L vitamin B1, 3 g/l KH2 PO4, 12 g/L K2 HPO4, 0.3 g/L MgSO4×7 H2 O, 0.1 g/L NaCl, 5 g/L (NH4)2 SO4, 14.7 mg/L CaCl2×2 H2 O, 2 mg/L FeSO4×2 H2 O, 1 g/L Na3 citrate×2 H2 O, 1 ml/L trace element solution and 25 mg/L tetracycline. The trace element solution was composed of 0.15 g/L Na2 MoO4×2 H2 O, 2.5 g/L H3 BO3, 0.7 g/L CoCl2×6 H2 O, 0.25 g/L CuSO4×5 H2 O, 1.6 g/L MnCl2×4 H2 O and 0.3 g/L ZnSO4×7 H2 O. The cultures were shaken in 1 L Erlenmeyer flasks at 30° C. and at 150 rpm for 17 h. After this incubation, the OD600 was between 4 and 5. The subsequent fermentation was carried out in Braun-Melsungen BIOSTAT M research fermenters. A culturing vessel having a total volume of 2 L was used.
The fermentation medium contained 15 g/L glucose, 5 g/L NaCl, 0.3 g/L MgSO4×7 H2 O, 15 mg/L CaCl2×2 H2 O, 75 mg/L FeSO4×7 H2 O, 1 g/L Na3 citrate×2 H2 O, 1.5 g/L KH2 PO4, 1 mL of trace element solution (see above), 5 mg/L vitamin B1, 2.5 g/L yeast extract (Difco), 2.5 g/L tryptone (Difco) and 25 mg/L tetracycline.
The glucose concentration in the fermenter was initially adjusted to a value of 15 g/L by pumping in a 700 g/L (w/v) (sterilized) glucose solution, and the pH was adjusted to 7.0 by pumping in a 25% NH4 OH solution. After an OD600 of 10 had been reached, 300 mg per hour were supplied from a sterile 100 g/L (w/v) stock solution of thiosulfate. 100 mL of preliminary culture were pumped into the fermenter vessel for the inoculation. The starting volume was approximately 1 L. The cultures were initially stirred at 400 rpm and aerated with 1.5 vvm of compressed air which had been sterilized by passing through a sterile filter. The fermentation was carried out at a temperature of 30° C.
The pH was maintained at a value of 7.0 by means of automatic correction with 25% NH4 OH. The oxygen saturation in the fermentation broth had at no time during the fermentation to fall below 20%; the stirring speed was used to ensure this. The glucose content of the nutrient solution, the optical density and the cysteine content were determined at two- to three-hourly intervals. The glucose content was determined enzymically using a glucose analyzer from YSI. The concentration of the glucose was adjusted to between 10 and 20 g/L by means of continuously feeding in this compound.
The content of cysteine in the medium was determined […] from the cell-free super-natant of the sample using the method of Gaitonde, M. K. (1967), Biochem. J. 104, 627-633.
The fermentation was terminated after 44-50 h.

T1 sequence (P0A9D4 whole entry M256I): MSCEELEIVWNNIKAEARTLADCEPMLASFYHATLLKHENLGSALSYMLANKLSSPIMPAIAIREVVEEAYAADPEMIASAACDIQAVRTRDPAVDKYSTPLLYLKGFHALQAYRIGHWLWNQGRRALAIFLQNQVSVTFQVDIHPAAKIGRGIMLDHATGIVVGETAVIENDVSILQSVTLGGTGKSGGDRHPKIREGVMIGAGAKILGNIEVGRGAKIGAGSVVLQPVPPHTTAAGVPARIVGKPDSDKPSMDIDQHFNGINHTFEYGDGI

Consider `N[C@@H](CS)C(=O)O` [L-cysteine], for which the feedback resistance elevated in assay [1] is on record as 10 fold. For the same molecule, the inhibition constant (Ki) was 1.1 µM in assay [2] and roughly 10 µM in assay [3].

B1: cysEIV: double mutant Ala237->Val237, Gly238->Ser238 (protein, UniProt P0A9D4 1-273, looked up, variant A237V G238S)
Serine acetyltransferase: MSCEELEIVWNNIKAEARTLADCEPMLASFYHATLLKHENLGSALSYMLANKLSSPIMPAIAIREVVEEAYAADPEMIASAACDIQAVRTRDPAVDKYSTPLLYLKGFHALQAYRIGHWLWNQGRRALAIFLQNQVSVTFQVDIHPAAKIGRGIMLDHATGIVVGETAVIENDVSILQSVTLGGTGKSGGDRHPKIREGVMIGAGAKILGNIEVGRGAKIGAGSVVLQPVPPHTTAVSVPARIVGKPDSDKPSMDMDQHFNGINHTFEYGDGI
B1: the yields of cysteine in assay [4] is recorded as 0.5 g/L. Besides, the inhibition constant Ki in assay [5] (Table 1a, 1 mM L-serine, 0.1 mM acetyl-CoA) is 40 µM; in assay [5] (Table 4, alleles from site-specific mutagenesis), 40 µM. Moreover, in assay [5] (Table 1a, serine acetyltransferase activity), the spec. act. amounted to 0.170 µmol/min/mg. The molecule also showed a Cysteine yield in assay [6] of 1.6 g/L.

The Ki is the equilibrium dissociation constant of an inhibitor or competing ligand from its target.

(Values after patent US6218168A, “Process for preparing O-acetylserine, L-cysteine and L-cysteine-related products” (Consortium fur elektrochemische Inudstrie GmbH, priority 1995, dated 2001).)
